Patent US20190218304A1 (INNATE PHARMA, published 2019)
Residue numbers refer to the chain shown, from its start.

Experiments:
Human CD39-L2 = biological target: T1, Human CD39-L2 (human, UniProt O75354 61-484, limits assumed); assay: ELISA on coated recombinant human CD39-L2 [panel huCD39 L2]
T1 construct: Recombinant protein coated in ELISA; also called NTPDase6; ENTPD6
T1 sequence: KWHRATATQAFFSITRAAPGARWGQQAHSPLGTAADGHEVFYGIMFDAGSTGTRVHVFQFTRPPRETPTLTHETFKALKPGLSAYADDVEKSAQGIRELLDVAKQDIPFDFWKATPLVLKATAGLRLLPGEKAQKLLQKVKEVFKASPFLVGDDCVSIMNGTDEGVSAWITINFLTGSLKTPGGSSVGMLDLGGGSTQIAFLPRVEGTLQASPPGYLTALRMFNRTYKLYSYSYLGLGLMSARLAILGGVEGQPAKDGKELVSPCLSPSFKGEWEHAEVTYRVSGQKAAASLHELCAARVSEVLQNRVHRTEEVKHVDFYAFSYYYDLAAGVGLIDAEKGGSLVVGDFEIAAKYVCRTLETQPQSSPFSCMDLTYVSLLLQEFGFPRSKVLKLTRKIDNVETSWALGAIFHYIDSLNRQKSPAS
Description: Wells were washed in TBS Tween 20, and further saturated 2H at RT in TBS Blocking buffer. Dose range concentration of primary antibody was incubated in TBS blocking buffer for 2 h at RT. Wells were washed in TBS Tween 20. […] Optical density was measured on Enspire™ at OD=450.

[1] = biological target: T2, murine CD39 expressed on CHO cells (murine, UniProt P55772 1-510); assay: flow cytometry titration on CHO cells expressing murine CD39 [panel CHO-moCD39]
T2 construct: whole, on cells; also called CHO-moCD39; mouse CD39
T2 sequence (looked up): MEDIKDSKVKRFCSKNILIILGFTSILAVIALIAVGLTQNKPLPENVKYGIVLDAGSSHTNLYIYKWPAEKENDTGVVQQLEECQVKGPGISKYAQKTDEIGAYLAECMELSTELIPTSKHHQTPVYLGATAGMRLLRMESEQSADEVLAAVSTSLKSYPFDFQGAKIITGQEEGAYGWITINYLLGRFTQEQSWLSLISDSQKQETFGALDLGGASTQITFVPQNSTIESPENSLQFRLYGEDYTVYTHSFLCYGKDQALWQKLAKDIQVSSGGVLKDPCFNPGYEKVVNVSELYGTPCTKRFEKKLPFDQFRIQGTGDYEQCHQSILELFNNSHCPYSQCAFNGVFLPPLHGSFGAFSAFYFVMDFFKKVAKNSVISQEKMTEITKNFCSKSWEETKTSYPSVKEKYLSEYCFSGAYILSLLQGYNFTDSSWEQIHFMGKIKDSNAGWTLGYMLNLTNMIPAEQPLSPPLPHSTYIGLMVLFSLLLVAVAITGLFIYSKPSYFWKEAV
Description: Cells were incubated with various concentration of unlabeled anti-CD39 antibody from 30 μg/ml to 5×10⁻⁴ μg/ml, for 30 minutes at 4° C. After washes, cells were incubated with Goat anti-mouse H+L labeled secondary antibody for 30 min at 4° C.

CD39 mutant 15 = biological target: T3, CD39 mutant 15 (human, UniProt P49961 1-510); assay: flow cytometry on Hek-293T cells transfected with CD39 mutant 15 [panel M15]
T3 construct: Expressed on transfected Hek-293T cells; also called M15
T3 chain: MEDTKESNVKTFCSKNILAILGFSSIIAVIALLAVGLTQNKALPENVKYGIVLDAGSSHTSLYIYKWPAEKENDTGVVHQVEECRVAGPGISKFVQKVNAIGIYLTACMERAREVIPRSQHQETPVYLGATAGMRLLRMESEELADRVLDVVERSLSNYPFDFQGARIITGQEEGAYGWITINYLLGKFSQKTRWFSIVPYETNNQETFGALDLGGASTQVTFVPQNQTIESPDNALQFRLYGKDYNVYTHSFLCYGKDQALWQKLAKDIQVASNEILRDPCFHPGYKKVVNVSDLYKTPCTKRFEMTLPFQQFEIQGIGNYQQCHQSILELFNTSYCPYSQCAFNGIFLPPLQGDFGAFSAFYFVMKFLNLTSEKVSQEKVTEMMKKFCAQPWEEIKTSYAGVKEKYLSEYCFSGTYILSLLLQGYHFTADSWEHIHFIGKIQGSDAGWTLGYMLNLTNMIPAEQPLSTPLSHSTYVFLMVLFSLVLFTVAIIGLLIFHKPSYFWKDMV

[2] = biological target: T4, human CD39 expressed on cells (human, UniProt P49961 1-510); assay: cell-based or functional assay
T4 sequence: T3 chain with A87K, A100E, A107D

CD39 mutant 5 = biological target: T5, CD39 mutant 5 (human, UniProt P49961 1-510); assay: flow cytometry on Hek-293T cells transfected with CD39 mutant 5 [panel M5]
T5 construct: Expressed on transfected Hek-293T cells; also called M5
T5 chain: T3 chain with A87K, Q96A, N99A, A100E, A107D, E143A, R147E

B1: antibody I-394 (antibody, human IgG1, kappa, V domains shown)
VH: EVQLQQSGPELVKPGASVKMSCKASGYTFTDYNMHWVKQSHGRTLEWIGYIVPLNGGSTFNQKFKGRATLTVNTSSRTAYMELRSLTSEDSAAYYCARGGTRFAYWGQGTLVTVSA
VL: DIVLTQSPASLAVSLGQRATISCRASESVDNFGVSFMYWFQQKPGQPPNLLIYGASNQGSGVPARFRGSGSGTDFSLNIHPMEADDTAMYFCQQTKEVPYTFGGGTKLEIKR
notes: The hybridoma-derived mouse form was used in early screening
- binding result (Human CD39-L2): no binding
- binding result [1]: no binding
- binding result (CD39 mutant 15): binds
- IC50 (inhibition of 50% of the enzymatic activity of CD39 expressed by 50,000 Ramos cells) [2]: 0.05 µg/mL
- binding result (CD39 mutant 5): binds
